The source of these data is US20260034246A1 (REGENXBIO, published 2026).

Experiment [1] deals with T1, Mouse Complement C5 Protein (mouse, UniProt P06684 19-1680, limits assumed, biotinylated in the Octet assay (sites not given)).
T1 construct: native C5 of normal mouse serum in the hemolysis assays; also called Mouse C5; mC5
Nature of the experiment: BLI (OctetRED384), biotinylated mouse C5 on SA biosensor, BB5.1 IgG as analyte, 30 C.

The target of experiment [2] is T1, Mouse Complement C5 Protein. Nature of the experiment: BLI (OctetRED384), biotinylated mouse C5 on SA biosensor, BB5.1-Fab-His6 as analyte, 30 C.
Protocol: (§1) The assay was performed at 30° C. and at 1000 rpm. Biotinylated mouse C5 antigen was firstly immobilized onto SA biosensor.
In experiment [3] the target is T2, Cyno Complement C5 Protein (cynomolgous macaque).
T2 construct: also called Cyno C5; Biotinylated cyno C5 antigen
As to the kind of experiment: BLI (OctetRED384), biotinylated cyno C5 on SA biosensor, Crovalimab IgG as analyte, 30 C.
Protocol: The assay was performed at 30° C. and at 1000 rpm. Biotinylated cyno C5 antigen was firstly immobilized onto SA biosensor.

Experiment [4] deals with T1, Mouse Complement C5 Protein. Nature of the experiment: BLI (OctetRED384), biotinylated mouse C5 on SA biosensor, Crovalimab IgG as analyte, 30 C.
Protocol: as §1
In experiment [5] the target is T2, Cyno Complement C5 Protein. Nature of the experiment: BLI (OctetRED384), biotinylated cyno C5 on SA biosensor, Crovalimab-Fab-His6 as analyte, 30 C.
Experiment [6] deals with T1, Mouse Complement C5 Protein. Nature of the experiment: BLI (OctetRED384), biotinylated mouse C5 on SA biosensor, Crovalimab-Fab-His6 as analyte, 30 C.
Protocol: as §1
Experiment [7] addresses T2, Cyno Complement C5 Protein. Nature of the experiment: BLI (OctetRED384), biotinylated cyno C5 on SA biosensor, Crovalimab scFv.HL as analyte, 30 C.
The target of experiment [8] is T1, Mouse Complement C5 Protein. As to the kind of experiment: BLI (OctetRED384), biotinylated mouse C5 on SA biosensor, Crovalimab scFv.HL as analyte, 30 C.
Protocol: as §1
Experiment [9] has the same target. As to the kind of experiment: BLI (OctetRED384), biotinylated mouse C5 on SA biosensor, BB5.1 scFv.LH as analyte, 30 C.
Protocol: as §1

B1: BB5.1 IgG (full-length mAb) (antibody, V domains shown)
VH: QVQLQQPGAELVRPGTSVKLSCKASGYTFTSSWMHWVKQRPGQGLEWIGVIDPSDSYTNYNQKFKGKATLTVDTSSSTAYMQLSSLTSEDSAVYYCARGGGSSYNRYFDVWGTGTTVTVSS
VL: NIMMTQSPSSLAVSAGEKVTMSCKSSQSVLYSSNQKNYLAWYQQKPGQSPKLLIYWASTRESGVPDRFTGSGSGTDFTLTISSVQAEDLAVYYCHQYLSSRTFGGGTKLEIKR
notes: Surrogate anti-mouse C5 mAb; purified recombinant protein expressed in HEK293 cells; also called Anti-mC5 IgG; BB5.1 full-length mAb
By Kd is commonly meant the concentration at which binding is half-saturated. Molecule B1 gave a dissociation constant Kd in experiment [1] of 0.0121 nM.

B2: BB5.1-Fab-His6 (Fab, V domains shown)
VH: B1 VH
VL: B1 VL
notes: also called Anti-mC5 Fab; BB5.1 Fab mAb
In experiment [2], B2 showed an equilibrium dissociation constant (Kd) of 3.47 nM.

B3: Crovalimab IgG (full-length mAb) (antibody, V domains shown)
VH: QVQLVESGGGLVQPGRSLRLSCAASGFTVHSSYYMAWVRQAPGKGLEWVGAIFTGSGAEYKAEWAKGRVTISKDTSKNQVVLTMTNMDPVDTATYYCASDAGYDYPTHAMHYWGQGTLVTVSS
VL: DIQMTQSPSSLSASVGDRVTITCRASQGISSSLAWYQQKPGKAPKLLIYGASETESGVPSRFSGSGSGTDFTLTISSLQPEDFATYYCQNTKVGSSYGNTFGGGTKVEIKR
notes: also called Anti-hC5 IgG; Crovalimab full-length mAb
B3: the Kd in [3] worked out at 0.0131 nM; in experiment [4] it was 0.0229 nM.

B4: Crovalimab-Fab-His6 (Fab, V domains shown)
VH: B3 VH
VL: B3 VL
notes: also called Anti-hC5 Fab; Crovalimab Fab mAb
For the molecule B4, the Kd was found to be 0.0602 nM in experiment [5] and 4.14 nM in experiment [6].

B5: Crovalimab scFv.HL (scFv)
scFv: QVQLVESGGGLVQPGRSLRLSCAASGFTVHSSYYMAWVRQAPGKGLEWVGAIFTGSGAEYKAEWAKGRVTISKDTSKNQVVLTMTNMDPVDTATYYCASDAGYDYPTHAMHYWGQGTLVTVSSGGGGSGGGGSGGGGSDIQMTQSPSSLSASVGDRVTITCRASQGISSSLAWYQQKPGKAPKLLIYGASETESGVPSRFSGSGSGTDFTLTISSLQPEDFATYYCQNTKVGSSYGNTFGGGTKVEIKR
notes: also called Anti-hC5 scFV; Crovalimab scFv mAb
In the case of B5, the Kd in experiment [7] was determined as 0.0845 nM; in experiment [8], 4.54 nM.

B6: BB5.1 scFv.LH (scFv)
scFv: NIMMTQSPSSLAVSAGEKVTMSCKSSQSVLYSSNQKNYLAWYQQKPGQSPKLLIYWASTRESGVPDRFTGSGSGTDFTLTISSVQAEDLAVYYCHQYLSSRTFGGGTKLEIKRGGGGSGGGGSGGGGSQVQLQQPGAELVRPGTSVKLSCKASGYTFTSSWMHWVKQRPGQGLEWIGVIDPSDSYTNYNQKFKGKATLTVDTSSSTAYMQLSSLTSEDSAVYYCARGGGSSYNRYFDVWGTGTTVTVSS
notes: also called Anti-mC5 scFV; BB5.1 scFv mAb
In experiment [9], B6 showed an equilibrium dissociation constant (Kd) of 3.69 nM.
